Tests used:
[1] = molecular target: HLA-B*27:05 class I heavy chain (HC), V5 tagged (human); test: non-reducing two-dimensional isoelectric focusing gel electrophoresis and immunoblot of immunoprecipitates; anti-tapasin immunoprecipitates resolved by charge and then by non-reducing SDS-PAGE, immunoblot with anti-V5
[2] = molecular target: HLA-B*27:05 class I heavy chain (HC), V5 tagged (human); test: non-reducing two-dimensional isoelectric focusing gel electrophoresis and immunoblot; 1% NP40 lysates resolved by charge in the first dimension and by non-reducing SDS-PAGE in the second, immunoblot with anti-V5; monomers and dimers compared by pI
[3] = molecular target: HLA-B*27:05 single chain trimer (SCT): NP 383-391 peptide - linker - human beta-2 microglobulin - linker - HLA-B*27:05 heavy chain - V5 (influenza virus | human); test: non-reducing two-dimensional isoelectric focusing gel electrophoresis and immunoblot of immunoprecipitates; anti-tapasin immunoprecipitates resolved by charge and then by non-reducing SDS-PAGE, immunoblot with anti-V5
[4] = molecular target: HLA-B*27:05 single chain trimer (SCT): NP 383-391 peptide - linker - human beta-2 microglobulin - linker - HLA-B*27:05 heavy chain - V5 (influenza virus | human); test: non-reducing two-dimensional isoelectric focusing gel electrophoresis and immunoblot; 1% NP40 lysates resolved by charge in the first dimension and by non-reducing SDS-PAGE in the second, immunoblot with anti-V5; monomers and dimers compared by pI

stoichiometry N [1]	stoichiometry N [2]	Substance	stoichiometry N [3]	stoichiometry N [4]
2	2	HLA-B*27:05 class I heavy chain (HC), V5 tagged (natural protein)	–	–
–	–	HLA-B*27:05 single chain trimer (SCT): NP 383-391 peptide - linker - human beta-2 microglobulin - linker - HLA-B*27:05 heavy chain - V5 (from UniProt P61769 21-119) (peptide-MHC)	2	2

From article PMC9359109
